Assay results reported in patent publication US20260232824A1 (CHAMPIONS ONCOLOGY, published 2026).

T1: human CD180/human MD-1 on HEK293 cells (human, UniProt Q99467 24-661; O95711 21-162)
T1 construct: whole, on cells; Complex co-expressed on HEK293 cells; also called HEK293 expressing CD180/MD-1; HEK293 CD180/MD-1 cells
T1 sequence (looked up) 1: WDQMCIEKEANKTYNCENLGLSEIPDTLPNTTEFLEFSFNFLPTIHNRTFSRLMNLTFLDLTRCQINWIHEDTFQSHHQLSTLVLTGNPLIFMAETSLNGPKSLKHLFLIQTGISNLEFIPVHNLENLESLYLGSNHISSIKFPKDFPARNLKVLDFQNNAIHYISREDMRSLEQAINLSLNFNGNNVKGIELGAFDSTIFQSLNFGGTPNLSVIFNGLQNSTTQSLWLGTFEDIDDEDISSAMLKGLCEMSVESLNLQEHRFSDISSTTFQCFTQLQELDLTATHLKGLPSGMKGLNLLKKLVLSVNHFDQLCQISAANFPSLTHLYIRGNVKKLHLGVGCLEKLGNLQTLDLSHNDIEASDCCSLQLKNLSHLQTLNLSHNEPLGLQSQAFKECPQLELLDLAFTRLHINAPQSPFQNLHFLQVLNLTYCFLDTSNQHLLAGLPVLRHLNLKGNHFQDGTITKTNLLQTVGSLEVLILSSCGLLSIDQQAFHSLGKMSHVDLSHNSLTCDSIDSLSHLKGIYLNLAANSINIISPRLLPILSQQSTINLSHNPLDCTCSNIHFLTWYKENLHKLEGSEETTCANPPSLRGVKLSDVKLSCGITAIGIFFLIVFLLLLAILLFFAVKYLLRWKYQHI
T1 sequence (looked up) 2: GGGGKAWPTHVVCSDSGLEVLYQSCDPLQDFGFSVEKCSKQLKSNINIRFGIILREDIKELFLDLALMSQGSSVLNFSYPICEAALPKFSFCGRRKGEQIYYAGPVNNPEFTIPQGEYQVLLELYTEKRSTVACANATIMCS

T2: human MD-1 on HEK293 cells (human, UniProt O95711 21-162)
T2 construct: whole, on cells; also called HEK293 expressing MD-1 only; MD-1 cells
T2 sequence (looked up): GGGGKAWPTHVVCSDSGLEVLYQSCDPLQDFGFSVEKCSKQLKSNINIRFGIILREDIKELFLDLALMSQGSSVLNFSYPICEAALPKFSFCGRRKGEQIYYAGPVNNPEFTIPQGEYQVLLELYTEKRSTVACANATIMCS

T3: human CD180 extracellular domain (ECD) HIS-tagged protein (Sino Biological, 11370-H08H) (human, UniProt Q99467 24-626)
T3 construct: extracellular domain; Bought protein; also called soluble human CD180 from Sino Biologics; human CD180(ECD)-HIS; not shown: His tag
T3 sequence (looked up): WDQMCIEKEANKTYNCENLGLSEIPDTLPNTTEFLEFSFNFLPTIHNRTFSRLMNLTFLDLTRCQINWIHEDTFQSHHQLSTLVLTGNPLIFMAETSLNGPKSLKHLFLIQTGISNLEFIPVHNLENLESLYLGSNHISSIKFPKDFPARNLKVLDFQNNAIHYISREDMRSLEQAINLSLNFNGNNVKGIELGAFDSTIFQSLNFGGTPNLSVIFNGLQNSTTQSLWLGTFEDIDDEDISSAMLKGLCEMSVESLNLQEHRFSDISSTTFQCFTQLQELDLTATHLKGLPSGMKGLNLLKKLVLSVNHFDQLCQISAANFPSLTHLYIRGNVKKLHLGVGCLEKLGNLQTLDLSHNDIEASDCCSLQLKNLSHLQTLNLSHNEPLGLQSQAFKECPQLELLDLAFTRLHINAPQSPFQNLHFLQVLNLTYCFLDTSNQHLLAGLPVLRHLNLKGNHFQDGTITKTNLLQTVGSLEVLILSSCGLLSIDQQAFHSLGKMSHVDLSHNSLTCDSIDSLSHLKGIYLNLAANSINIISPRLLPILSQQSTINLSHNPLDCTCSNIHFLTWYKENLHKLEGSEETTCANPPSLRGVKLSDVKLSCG

T4: human CD180 extracellular domain (ECD) HIS-tagged protein (Creative Biomart, CD180-3900H) (human, UniProt Q99467 24-626)
T4 construct: extracellular domain; Bought protein; also called soluble human CD180 from Creative Biomart; not shown: His tag
T4 sequence (looked up): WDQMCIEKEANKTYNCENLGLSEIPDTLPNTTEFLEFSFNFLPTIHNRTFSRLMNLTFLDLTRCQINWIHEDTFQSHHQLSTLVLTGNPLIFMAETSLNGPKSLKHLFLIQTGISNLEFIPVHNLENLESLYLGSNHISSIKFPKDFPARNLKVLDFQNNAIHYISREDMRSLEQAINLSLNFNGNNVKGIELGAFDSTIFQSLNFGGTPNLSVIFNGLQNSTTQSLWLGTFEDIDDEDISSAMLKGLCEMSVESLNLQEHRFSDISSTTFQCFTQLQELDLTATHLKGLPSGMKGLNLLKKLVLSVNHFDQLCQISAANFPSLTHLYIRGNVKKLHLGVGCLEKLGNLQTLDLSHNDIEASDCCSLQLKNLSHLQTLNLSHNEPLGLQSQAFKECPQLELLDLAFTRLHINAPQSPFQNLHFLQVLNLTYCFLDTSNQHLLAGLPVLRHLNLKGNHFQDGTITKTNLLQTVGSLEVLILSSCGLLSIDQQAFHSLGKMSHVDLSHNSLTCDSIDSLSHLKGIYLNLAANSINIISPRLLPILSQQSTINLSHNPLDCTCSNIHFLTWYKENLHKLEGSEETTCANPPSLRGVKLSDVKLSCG


Key:
[1] = molecular target: T1, human CD180/human MD-1 on HEK293 cells; experiment: cell-based ELISA / flow cytometry, HEK293 expressing CD180/MD-1, 100 nM and 30 nM
Experimental: (§1) FIGS. 1A-IC show the cell binding properties of the anti-CD180 antibodies. All CHAMP mAbs were subjected to binding assays via cell-based ELISA. FIG. 1A: Antibodies were screened at […] and 30 nM in a cell-based ELISA using HEK293 expressing CD180/MD-1. […] P84, mouse IgG, and 2nd only mouse were negative controls. […] FIG. 1B: Antibodies were screened at […] in cell-based ELISA using HEK293 expressing MD-1 only. […] FIG. 1C: Antibodies were screened at […] in cell-based ELISA using HEK293 parental cell line.
(§2) All mAbs were subjected to cell binding screen detected on a flow cytometer. Engineered cells expressing CD180/MD-1, MD-1, or parental HEK cells were used to test for binding of the antibodies. Antibodies at a concentration of 100 nM or 30 nM were incubated with cells at 4° C. for 45 min. R-Phycoerythrin AffiniPure Goat Anti-Human IgG (Jackson Immunoresearch 109-115-098) was used as the secondary antibody. The binding of antibodies on cells were detected on Intellicyt iQue3 VBR.

[2] = molecular target: T2, human MD-1 on HEK293 cells; experiment: cell binding screen by flow cytometry (called cell-based ELISA), HEK293 expressing MD-1 only
Experimental: as §1, §2

[3] = molecular target: T1, human CD180/human MD-1 on HEK293 cells; experiment: cell binding on HEK293 CD180/MD-1 cells (FIG. 14G)
Experimental: Cells were then incubated with the secondary antibody R-Phycoerythrin AffiniPure Goat Anti-Human IgG (Jackson Immunoresearch 109-115-098). The data was acquired on Intellicyt iQue3 VBR. Median fluorescence intensities (MFI) were plotted against the concentrations of the anti-CD180 antibodies.

[4] = molecular target: T1, human CD180/human MD-1 on HEK293 cells; experiment: cell binding screen by flow cytometry, cells expressing CD180/MD-1, 100 nM or 30 nM
Experimental: as §1, §2

[5] = molecular target: T3, human CD180 extracellular domain (ECD) …; experiment: SPR, antibody captured in a bivalent format, soluble human CD180 from Sino Biologics passed over (FIG. 3A)
Experimental: (§3) FIGS. 3A-3C show intrinsic binding affinity of the antibodies as determined by Surface Plasmon Resonance (SPR) assay. Antibody was captured in a bivalent format and soluble human CD180 from Sino Biologics (FIG. 3A), Creative Biomart (FIG. 3B), or soluble rhesus CD180 (FIG. 3C) was passed over the captured antibody. […] Kon, koff and KD are indicated for each condition.
(§4) Surface Plasmon Resonance (SPR) was used to identify intrinsic binding affinity. Kinetic experiments were performed on Carterra LSA with a running buffer of PBS pH 7.40, 1% BSA, 0.05% Tween20. Antibodies were captured on an anti-human Fc capture chip prepared with a HC30M chip. […] For each concentration, there was 5 min association followed by 15 min dissociation. Results were processed and analyzed in Carterra LSA Kinetics Software. The kinetic data was referenced with the interstitial reference spots and double-referenced to a buffer cycle, and then fit globally to a 1:1 binding model to determine their apparent association and dissociation kinetic rate constants (kₒₙ and koff values). The ratio koff/kₒₙ was used to derive the KD value of each antigen/mAb interaction, i.e., KD=koff/kₒₙ.

[6] = molecular target: T4, human CD180 extracellular domain (ECD) …; experiment: SPR, antibody captured in a bivalent format, soluble human CD180 from Creative Biomart passed over (FIG. 3B)
Experimental: as §3, §4

Row | Binder | binding result [1] | binding result [2] | EC50 [3] | binding result [4] | binding result [5] | binding result [6]
1 | Ab-008 (antibody, human IgG1, kappa, V domains shown) VH: EVQLVESGGGLVQPGRSLRLSCTTSGFTFADYAMHWVRQTPGQGLEWVSGISWNGGTMGYADSVKGRFTISRDIAKNSLYLQMNSLRAEDTALYYCAKDIAYSRGYFQHWGQGTLVTVSS VL: DIQMTQSPSSLSASVGDRVTITCRASQGIRNDLGWYQQKPGKAPKLLIYAASTLQSGVPSRFSGSGSGTDFTLTISSLQPEDVATYYCQKYNSAPFTFGPGTKVDIKR | binds | no binding (tested: 100 nM) |  |  |  | 
2 | Ab-016 (antibody, human IgG1, kappa, V domains shown) VH: EVQLVESGGGLVQPGRSLRLSCTTSGFTFADYAMHWVRQTPGKGLEWVSGISWNGGTIGYADSVKGRFTISRDIAKNSLYLQMNSLRAEDTALYYCAKDIAYSRGYFQHWGQGTLVTVSS VL: not shown | binds | no binding (tested: 100 nM) |  |  |  | 
3 | Ab-009 (antibody, human IgG1, kappa, V domains shown) VH: EVQLVESGGGLVQPGRSLRLSCTTSGFTFADYAMHWVRQTPGKGLEWVSGISWNGVTIDYADSVKGRFTISRDIAKNSLYLQMNSLRAEDTALYYCAKDIAYSRGYFQHWGQGTLVTVSS VL: not shown |  | no binding (tested: 100 nM) |  |  |  | 
4 | Ab-012 (antibody, human IgG1, kappa, V domains shown) VH: EVQLVESGGGLVQPGRSLRLSCTTSGFTFADYAMHWVRQTPGQGLEWVSGISWNGGTMGYADSVKGRFTISRDIAKNSLYLQMNSLRAEDTALYYCAKDIAYSRGYFQHWGQGTLVTVSS VL: not shown | binds | no binding (tested: 100 nM) |  |  |  | 
5 | Ab-010 (antibody, human IgG1, kappa, V domains shown) VH: EVQLVESGGGLVQPGGSLRLSCTSSGFTFADYAMHWVRQTPGKGLEWVSGISWNGGTFDYADSVKGRFTISRDIAKNSLYLQMNSLRVEDTALYYCAKDIAYSRGYFQHWGQGTLVTVSS VL: not shown | binds | no binding (tested: 100 nM) |  |  |  | 
6 | Ab-014 (antibody, human IgG1, kappa, V domains shown, also called CHAMPmAB-014) VH: EVQLVESGGGLVQPGRSLRLSCTTSGFTFADYAMHWVRQTPGKGLEWVSGISWNGVTIDYADSVKGRFTISRDIAKNSLYLQMNSLRAEDTALYYCAKDIAYSRGYFQHWGQGTLVTVSS VL: not shown |  | no binding (tested: 100 nM) | 4 nM |  |  | 
7 | Ab-002 (antibody, human IgG1, kappa, V domains shown) VH: EVQLVESGGGLVQPGGSLRLSCAASGFTSVDYAMHWVRQAPGKGLEWVSYISWNNNNIGYADSVKGRFTISRDNAKNSLYLHMSSLRAEDTALYYCAKDIAYNTGYFDYWGQGTLVTVSS VL: not shown |  | no binding (tested: 100 nM) |  | binds |  | 
8 | Ab-006 (antibody, human IgG1, kappa, V domains shown, also called ChampmAb-006; Champ mAb-006) VH: EVQLVESGGGLVKPGGSLRLSCTASGFTFDDYDMTWVRQAPGKGLEWVSGINWNGGNTDYADSVKGRFTISRDNTKNSLYLQMNSLRAEDTALYYCARKGRDIVVVKGFYYHYYYMDVWGKGITVTVSS VL: not shown |  | no binding (tested: 100 nM) |  | binds | binds | binds
9 | Ab-007 (antibody, human IgG1, kappa, V domains shown, also called ChampmAb-007; Champ mAb-007) VH: EVQLVESGGGVVRPGGSLRLSCAASGFTFDDYAMSWVRQAPGKGLEWVSDINWNGGTTSYADSVKGRFTISRDNAKNSLFLQMNSLRAEDTALYYCARKGRDTVVVKGYYYFSYYMDVWGKGSTVTVSS VL: not shown | binds | no binding (tested: 100 nM) |  |  | binds | binds

Next, values leading:

Row | binding result [1] | binding result [2] | EC50 [3] | binding result [4] | binding result [5] | binding result [6] | Binder
10 | binds | no binding (tested: 100 nM) |  |  |  |  | Ab-017 (antibody, human IgG1, kappa, V domains shown) VH: EVQLVESGGGLVQPGRSLRLSCTTSGFTFADYAMHWVRQTPGQGLEWVSGISWNGGTMGYADSVKGRFTISRDIAKNSLYLQMNSLRAEDTALYYCAKDIAYSRGYFQHWGQGTLVTVSS VL: not shown
11 |  | no binding (tested: 100 nM) |  | binds |  |  | Ab-005 (antibody, human IgG1, kappa, V domains shown) VH: EVQLVESGGGLVQPGGSLRLSCTTSGFTFADYAMHWVRQTPGKGLEWVSGISWNGGTIGYADSVKGRFTISRDIAKNSLYLQMNSLRAEDTALYYCAKDIAYSRGYFQHWGQGTLVTVSS VL: not shown
12 |  | no binding (tested: 100 nM) |  | binds |  |  | Ab-004 (antibody, human IgG1, kappa, V domains shown, also called CHAMPmAB-004) VH: EVQLVESGGGLVQPGGSLRLSCTTSGFTFADYAMHWVRQTPGKGLEWVSGISWNGVTIDYADSVKGRFTISRDIAKNSLYLQMNSLRAEDTALYYCAKDIAYSRGYFQHWGQGTLVTVSS VL: not shown
13 |  | no binding (tested: 100 nM) |  | binds |  |  | Ab-003 (antibody, human IgG1, kappa, V domains shown) VH: EVQLVESGGGLVQPGRSLRLSCTTSGFTFADYAMHWVRQTPGQGLEWVSGISWNGGTMGYADSVKGRFTISRDIAKNSLYLQMNSLRAEDTALYYCAKDIAYSRGYFQHWGQGTLVTVSS VL: not shown
